This note sets out measurements from patent US6521594 (LA JOLLA CANCER RESEARCH FOUNDATION, dated 2003).

Starred links: 1 amine or outer side, 2 acyl side, 3 side chain; linkers in the order of their positions; H or OH if unused. Positions of bridges follow the written chain, without caps; N, C: chain ends. Non-standard residues stand in square brackets, D forms with d. Primed or numbered codes have the meaning given here. No end group written: not given here. Tyr(OMe)″ = O-methyl-tyrosine (Y-OMe, TyrOMe, O-Me-Tyr), COc1ccc(C[C@H](N[*:1])C(=O)[*:2])cc1; Tyr(OMe) = O-methyl-tyrosine (O-Me-Tyr, Y-OMe), COc1ccc(C[C@H](N[*:1])C(=O)[*:2])cc1; Tyr(Me) = O-methyl-tyrosine (Y-OMe, O-Me-Tyr), COc1ccc(C[C@H](N[*:1])C(=O)[*:2])cc1; t‑but‑am‑Pmp = tert-butyl-substituted beta,beta-pentamethylenecysteine; Tyr(OMe)(3) = O-methyl-tyrosine, COc1ccc(C[C@H](N[*:1])C(=O)[*:2])cc1; Cys(β,β-pentamethylene) = O=C([C@@H](N[*:1])C1(S[*:3])CCCCC1)[*:2]; O‑Me‑Tyr = O-methyl-tyrosine, COc1ccc(C[C@H](N[*:1])C(=O)[*:2])cc1; Pen = CC(C)(S)[C@H](N)C(=O)O; code O = not defined here

Test [1] deals with T1, Platelet glycoprotein IIb/IIIa (human, UniProt P08514 32-1039; P05106 27-788). Briefly: cell-based or functional assay.
A further test concerns the target T2, Vitronectin receptor (human, UniProt P06756 31-1048; P05106 27-788).
T2 construct: mature; also called Vn-R; VnR
Kind of test: competition, ELISA or liposome assay, vitronectin coated. On the technique in general: ELISA stands for enzyme-linked immunosorbent assay.

The target in test [2] is T1, Platelet glycoprotein IIb/IIIa. Briefly: competition, ELISA or liposome assay.
The target of another test is T3, Fibronectin receptor (human, UniProt P08648 42-1049; P05556 21-798).
T3 construct: mature; Purified on a 110 kd fibronectin fragment column; also called Fn-R; FnR
Kind of test: competitive ELISA, fibronectin coated.

For test [3], the target named is T1, Platelet glycoprotein IIb/IIIa. Kind of test: cell-based or functional assay. This is another data set of the same source.
Test [4] shares this target. Kind of test: cell-based or functional assay. The source holds these as a separate data set.

T2 sequence (P06756 31-1048, chain 1 of 2): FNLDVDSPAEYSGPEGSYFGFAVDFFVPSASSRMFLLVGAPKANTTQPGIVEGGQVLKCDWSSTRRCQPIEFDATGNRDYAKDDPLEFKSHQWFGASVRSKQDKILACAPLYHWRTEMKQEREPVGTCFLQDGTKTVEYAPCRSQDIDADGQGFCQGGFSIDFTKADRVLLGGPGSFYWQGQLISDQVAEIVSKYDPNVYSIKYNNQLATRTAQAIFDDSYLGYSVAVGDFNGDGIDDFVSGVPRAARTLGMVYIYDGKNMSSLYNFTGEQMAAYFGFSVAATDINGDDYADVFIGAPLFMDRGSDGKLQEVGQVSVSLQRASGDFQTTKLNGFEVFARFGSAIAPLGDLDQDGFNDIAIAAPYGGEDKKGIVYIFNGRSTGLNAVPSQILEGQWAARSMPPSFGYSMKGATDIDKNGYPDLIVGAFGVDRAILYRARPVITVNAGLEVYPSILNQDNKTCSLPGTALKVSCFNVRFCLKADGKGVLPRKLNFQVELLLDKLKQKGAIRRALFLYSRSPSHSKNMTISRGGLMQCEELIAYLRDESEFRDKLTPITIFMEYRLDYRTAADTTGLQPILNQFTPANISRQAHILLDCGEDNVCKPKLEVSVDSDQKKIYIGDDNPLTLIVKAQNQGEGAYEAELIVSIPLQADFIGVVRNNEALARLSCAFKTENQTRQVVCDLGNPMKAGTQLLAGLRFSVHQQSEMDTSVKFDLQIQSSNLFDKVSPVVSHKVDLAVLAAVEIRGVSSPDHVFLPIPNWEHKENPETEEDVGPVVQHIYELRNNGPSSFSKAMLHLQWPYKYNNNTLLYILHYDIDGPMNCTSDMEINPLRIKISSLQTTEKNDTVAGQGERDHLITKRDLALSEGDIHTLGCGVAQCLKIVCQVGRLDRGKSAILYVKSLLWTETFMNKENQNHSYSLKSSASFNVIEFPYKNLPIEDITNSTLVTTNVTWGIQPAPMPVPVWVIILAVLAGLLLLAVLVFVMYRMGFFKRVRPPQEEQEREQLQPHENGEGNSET
T2 sequence (P05106 27-788, chain 2 of 2): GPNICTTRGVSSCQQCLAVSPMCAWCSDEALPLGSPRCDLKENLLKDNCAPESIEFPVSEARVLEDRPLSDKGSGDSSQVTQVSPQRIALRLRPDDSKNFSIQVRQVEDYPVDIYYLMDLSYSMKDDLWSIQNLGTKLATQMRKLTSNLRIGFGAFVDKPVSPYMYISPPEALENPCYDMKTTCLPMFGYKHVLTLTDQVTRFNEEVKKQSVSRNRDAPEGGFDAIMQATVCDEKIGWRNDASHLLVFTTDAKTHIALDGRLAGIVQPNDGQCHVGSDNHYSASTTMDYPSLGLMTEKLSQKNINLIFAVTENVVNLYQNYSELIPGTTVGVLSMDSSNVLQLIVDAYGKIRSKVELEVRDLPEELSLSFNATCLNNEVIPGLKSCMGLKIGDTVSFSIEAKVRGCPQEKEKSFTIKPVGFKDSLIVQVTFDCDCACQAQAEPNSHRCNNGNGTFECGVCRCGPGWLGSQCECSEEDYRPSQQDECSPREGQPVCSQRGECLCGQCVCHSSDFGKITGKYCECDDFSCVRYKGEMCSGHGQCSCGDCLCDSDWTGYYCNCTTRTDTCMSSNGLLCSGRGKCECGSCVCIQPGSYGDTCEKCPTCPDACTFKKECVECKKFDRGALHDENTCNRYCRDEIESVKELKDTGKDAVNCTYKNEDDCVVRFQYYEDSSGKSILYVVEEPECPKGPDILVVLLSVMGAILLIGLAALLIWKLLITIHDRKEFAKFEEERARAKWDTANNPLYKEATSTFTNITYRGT
T3 sequence (P08648 42-1049, chain 1 of 2): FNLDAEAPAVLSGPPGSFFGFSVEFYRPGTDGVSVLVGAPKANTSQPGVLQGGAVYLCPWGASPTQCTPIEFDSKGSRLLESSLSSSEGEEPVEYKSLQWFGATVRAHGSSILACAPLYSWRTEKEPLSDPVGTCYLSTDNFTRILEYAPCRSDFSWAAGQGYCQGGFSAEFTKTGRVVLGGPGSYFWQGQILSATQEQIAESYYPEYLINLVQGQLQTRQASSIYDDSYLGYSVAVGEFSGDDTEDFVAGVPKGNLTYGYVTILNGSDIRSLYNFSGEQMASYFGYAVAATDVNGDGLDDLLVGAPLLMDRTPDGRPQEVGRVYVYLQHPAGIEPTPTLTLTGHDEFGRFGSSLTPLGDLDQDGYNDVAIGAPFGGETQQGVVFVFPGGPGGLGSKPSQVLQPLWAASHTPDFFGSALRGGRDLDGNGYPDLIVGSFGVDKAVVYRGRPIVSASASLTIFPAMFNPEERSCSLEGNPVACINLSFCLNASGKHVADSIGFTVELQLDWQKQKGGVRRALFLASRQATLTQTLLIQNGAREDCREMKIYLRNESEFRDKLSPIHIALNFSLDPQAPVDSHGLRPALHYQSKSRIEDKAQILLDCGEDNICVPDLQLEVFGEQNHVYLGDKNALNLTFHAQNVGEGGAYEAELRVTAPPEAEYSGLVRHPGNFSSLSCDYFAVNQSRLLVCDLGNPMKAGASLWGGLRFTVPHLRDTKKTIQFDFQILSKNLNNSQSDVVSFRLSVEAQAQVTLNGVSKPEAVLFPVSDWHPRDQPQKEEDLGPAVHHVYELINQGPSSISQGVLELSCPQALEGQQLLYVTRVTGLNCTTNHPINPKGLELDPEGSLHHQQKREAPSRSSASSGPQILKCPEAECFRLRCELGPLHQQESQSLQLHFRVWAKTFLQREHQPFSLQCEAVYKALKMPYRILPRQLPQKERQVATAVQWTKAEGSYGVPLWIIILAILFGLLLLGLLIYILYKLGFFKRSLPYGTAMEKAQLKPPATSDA
T3 sequence (P05556 21-798, chain 2 of 2): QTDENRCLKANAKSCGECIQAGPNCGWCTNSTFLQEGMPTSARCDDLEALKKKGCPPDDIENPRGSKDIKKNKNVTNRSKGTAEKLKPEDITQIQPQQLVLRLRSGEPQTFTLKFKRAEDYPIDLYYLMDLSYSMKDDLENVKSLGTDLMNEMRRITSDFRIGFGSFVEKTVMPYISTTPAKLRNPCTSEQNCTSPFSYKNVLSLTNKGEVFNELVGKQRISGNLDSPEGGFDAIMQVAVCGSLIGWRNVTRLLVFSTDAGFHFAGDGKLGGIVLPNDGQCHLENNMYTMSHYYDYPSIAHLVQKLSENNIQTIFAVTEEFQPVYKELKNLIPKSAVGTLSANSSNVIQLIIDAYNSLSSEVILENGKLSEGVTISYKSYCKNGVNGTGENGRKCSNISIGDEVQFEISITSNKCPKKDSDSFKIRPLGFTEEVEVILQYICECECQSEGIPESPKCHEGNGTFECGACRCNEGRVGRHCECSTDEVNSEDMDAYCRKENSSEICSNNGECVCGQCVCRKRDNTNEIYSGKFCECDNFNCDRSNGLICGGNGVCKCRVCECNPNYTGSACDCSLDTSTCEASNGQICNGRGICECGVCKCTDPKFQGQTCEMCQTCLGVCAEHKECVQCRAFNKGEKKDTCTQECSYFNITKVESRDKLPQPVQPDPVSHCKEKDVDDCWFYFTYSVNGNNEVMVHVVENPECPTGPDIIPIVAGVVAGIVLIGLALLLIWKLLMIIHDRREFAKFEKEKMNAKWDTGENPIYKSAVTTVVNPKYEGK

Ac-CDPRGD[Tyr(OMe)″]RC-NH2 (disulfide 1-9 (inferred)) [AcCDPRGD(TyrOMe)RC-NH2]: the “Inhibition of Platelet Aggregation, IC50” value in test [1] was 3000 nM.

B1: R(t-but-am-Pmp)GHRGDLRCR-2 (peptide)
peptide: R[t‑but‑am‑Pmp]GHRGDLRCR
modifications: disulfide 2-10; not fully specified; printed as R(t-but-am-Pmp)GHRGDLRCR-2; also: second HPLC peak, configuration not assigned
The IC50 is the concentration that inhibits the measured activity by half. A high value points to weaker potency. Take B1: the results for the half-maximal inhibitory concentration (IC50) (with Vitronectin receptor; in test [2]) were 3700 nM and 60 nM, respectively.

On to R[Cys(β,β-pentamethylene)]GHRGD[Tyr(Me)][code O]CR (disulfide 2-10; reading uncertain; also: printed as R(Pmc)GHRGD(O-Me-Tyr)OCR) [R(Pmc)GHRGD(O-Me-Tyr)OCR], for which the IC50 in test [2] amounted to 7 nM.

Consider R[Cys(β,β-pentamethylene)]GHRGDLRCR (disulfide 2-10; not fully specified; printed as R(am-Pmp)GHRGDLRCR-1) [R(am-Pmp)GHRGDLRCR-1], for which the IC50 in test [2] was 400 nM.

With R[Pen]GRGDTPCA (disulfide 2-9) [R(Pen)GRGDTPCA], the IC50 with Vitronectin receptor is 30 nM; with Fibronectin receptor, 80 nM. Further, in test [3], the “IC50, ADP-Stimulated Aggregation” value was 7000 nM.

For the molecule R[Cys(β,β-pentamethylene)]GHRGD[O‑Me‑Tyr]RCR (disulfide 2-10, also called R(Pmc)GHRGD(Y-OMe)RCR; 5O) [R(Pmc)GHRGD(O-Me-Tyr)RCR], the half-inhibitory concentration (IC50) in test [2] was determined as 60 nM.

B2: Ac(Pmc)GHRGD(O-Me-Tyr)RC-NH2 (peptide)
peptide: Ac-[Cys(β,β-pentamethylene)]GHRGD[Tyr(OMe)]RC-NH2
modifications: disulfide 1-9
SMILES: COc1ccc(C[C@@H]2NC(=O)[C@H](CC(=O)O)NC(=O)CNC(=O)[C@H](CCCNC(=N)N)NC(=O)[C@H](Cc3c[nH]cn3)NC(=O)CNC(=O)[C@@H](NC(C)=O)C3(CCCCC3)SSC[C@@H](C(N)=O)NC(=O)[C@H](CCCNC(=N)N)NC2=O)cc1
Turning to B2, the concentration for half-maximal inhibition (IC50) with Vitronectin receptor is 10000 nM; in test [2] it was 400 nM.

As for T[Cys(β,β-pentamethylene)]GHRGD[Tyr(OMe)(3)]RCR (disulfide 2-10; not fully specified; printed as T(Pmc)GHRGD(O-Me-Tyr)RCR) [T(Pmc)GHRGD(O-Me-Tyr)RCR], the IC50 in the test with Vitronectin receptor and with Fibronectin receptor was 10000 nM each time.

With R[Pen]GHRGDWRCR (disulfide 2-10, also called 4Q) [R(Pen)GHRGDWRCR], the “IC50 (µM) Human Platelet Aggregation” value in test [4] was determined as 3.3 µM. In test [2], this molecule showed an IC50 of 800 nM.

In test [2], R[Cys(β,β-pentamethylene)]GHRGDWRCR (disulfide 2-10; not fully specified; printed as R(am-Pmp)GHRGDWRCR-1) [R(am-Pmp)GHRGDWRCR-1] registered a half-inhibitory concentration (IC50) of 60 nM.

As for FRGDSPDG, the IC50 was 40 nM in the test with Vitronectin receptor and 2400 nM with Fibronectin receptor. The “IC50, ADP-Stimulated Aggregation” value in test [3] came out at 110000 nM.

Take VRGDSPDG: the values for the IC50 (in the test with Vitronectin receptor; in test [2]; with Fibronectin receptor) were 240 nM, 270 nM and 40 nM, respectively. In test [3], the “IC50, ADP-Stimulated Aggregation” value is 92000 nM.
